Laboratory results as given in patent US20050282743A1, “Molecular interactions in cells” (Arbor Vita Corporation, priority 2001, published 2005).

Key:
[1] = biological target: GST-DLG1 PDZ domain 1 (Homo sapiens), Q12959; assay: G' assay; also: key of the grades not given here
[2] = biological target: T1, GST-MUPP1 PDZ domain 10 (Homo sapiens (Human)), O75970; assay: G' assay; also: key of the grades not given here
T1 chain: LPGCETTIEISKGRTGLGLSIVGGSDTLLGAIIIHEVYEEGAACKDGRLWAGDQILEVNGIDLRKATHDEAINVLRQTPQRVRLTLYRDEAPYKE

[3] = biological target: T2, GST-MUPP1 PDZ domain 11 (Homo sapiens (Human)), O75970; assay: G' assay; also: key of the grades not given here
T2 chain: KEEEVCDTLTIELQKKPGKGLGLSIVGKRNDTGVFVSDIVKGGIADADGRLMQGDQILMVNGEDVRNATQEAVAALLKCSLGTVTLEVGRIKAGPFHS

[4] = biological target: GST-DLG2 PDZ domain 1 (Homo sapiens (Human)), Q15700; assay: G' assay; also: key of the grades not given here
[5] = biological target: T3, GST-NeDLG PDZ domain 3 (Mus musculus (Mouse)), P70175; assay: G' assay; also: key of the grades not given here
T3 chain: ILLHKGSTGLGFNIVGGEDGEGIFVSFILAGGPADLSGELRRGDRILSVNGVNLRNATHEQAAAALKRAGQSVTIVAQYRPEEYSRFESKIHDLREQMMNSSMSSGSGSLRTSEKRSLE

[6] = biological target: GST-Atrophin-1 Interacting Protein PDZ domain 1 (Rattus norvegicus (Rat)), O88382; assay: G' assay; also: key of the grades not given here
Sequence of GST-Atrophin-1 Interacting Protein PDZ domain 1 (Rattus norvegicus (Rat)), O88382 (O88382 408-511): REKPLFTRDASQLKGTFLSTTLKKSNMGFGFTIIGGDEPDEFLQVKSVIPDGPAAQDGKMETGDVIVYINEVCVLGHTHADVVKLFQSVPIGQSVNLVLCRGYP

[7] = biological target: T4, GST-DLG2 PDZ domain 2 (Homo sapiens (Human)), Q15700; assay: G' assay; also: key of the grades not given here
T4 chain: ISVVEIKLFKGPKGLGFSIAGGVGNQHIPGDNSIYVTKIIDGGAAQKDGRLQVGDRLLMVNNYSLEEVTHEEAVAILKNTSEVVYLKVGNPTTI

[8] = biological target: T5, GST-DLG1 PDZ domain 2 (Homo sapiens), Q12959; assay: G' assay; also: key of the grades not given here
T5 chain: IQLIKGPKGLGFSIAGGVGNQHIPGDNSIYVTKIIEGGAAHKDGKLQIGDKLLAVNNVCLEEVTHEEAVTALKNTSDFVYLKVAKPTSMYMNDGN

[9] = biological target: GST-PSD95 PDZ domains 1, 2, 3 (Homo sapiens), P78352; assay: G' assay; also: key of the grades not given here
Sequence of GST-PSD95 PDZ domains 1, 2, 3 (Homo sapiens), P78352 (P78352 62-395): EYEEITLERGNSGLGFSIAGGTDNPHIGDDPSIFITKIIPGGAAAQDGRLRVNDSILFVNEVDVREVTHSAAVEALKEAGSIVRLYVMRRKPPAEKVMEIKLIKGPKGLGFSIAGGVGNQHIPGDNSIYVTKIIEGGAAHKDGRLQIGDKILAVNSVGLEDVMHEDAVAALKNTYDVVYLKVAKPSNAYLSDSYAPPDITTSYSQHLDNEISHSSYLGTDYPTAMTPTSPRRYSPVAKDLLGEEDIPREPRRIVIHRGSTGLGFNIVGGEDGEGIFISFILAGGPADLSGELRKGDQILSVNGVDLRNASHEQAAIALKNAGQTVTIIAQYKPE

[10] = biological target: T6, GST-NeDLG PDZ domains 1, 2, Q92796; assay: G' assay; also: key of the grades not given here
T6 chain: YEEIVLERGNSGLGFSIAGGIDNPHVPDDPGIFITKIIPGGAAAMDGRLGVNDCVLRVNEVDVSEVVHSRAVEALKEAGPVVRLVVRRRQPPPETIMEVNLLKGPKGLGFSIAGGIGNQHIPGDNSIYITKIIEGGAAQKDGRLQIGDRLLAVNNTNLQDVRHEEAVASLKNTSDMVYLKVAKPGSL

[11] = biological target: T7, GST-KIAA0807(S) PDZ domain 1 (Homo sapiens (Human)), Q6P0Q8; assay: G' assay; also: key of the grades not given here
T7 chain: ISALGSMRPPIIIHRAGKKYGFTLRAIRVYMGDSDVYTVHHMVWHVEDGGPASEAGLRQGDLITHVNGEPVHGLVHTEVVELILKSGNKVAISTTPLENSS

[12] = biological target: GST-PSD95 PDZ domain 1 (Homo sapiens); assay: G' assay; also: key of the grades not given here
[13] = biological target: T8, GST-NeDLG PDZ domain 2 (Rattus norvegicus (Rat)), Q62936; assay: G' assay; also: key of the grades not given here
T8 chain: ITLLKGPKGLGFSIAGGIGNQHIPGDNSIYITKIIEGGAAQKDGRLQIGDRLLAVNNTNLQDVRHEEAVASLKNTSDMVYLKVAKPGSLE

[14] = biological target: GST-KIAA1634 PDZ domain 1 (Homo sapiens (Human)), Q5TCQ9; assay: G' assay; also: key of the grades not given here
Sequence of GST-KIAA1634 PDZ domain 1 (Homo sapiens (Human)), Q5TCQ9 (Q5TCQ9 401-502): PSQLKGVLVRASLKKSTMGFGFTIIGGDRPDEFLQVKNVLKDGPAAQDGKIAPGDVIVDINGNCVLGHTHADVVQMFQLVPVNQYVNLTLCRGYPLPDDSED

[15] = biological target: T9, GST-KIAA0303 PDZ domain 1 (Homo sapiens (Human)), O15021; assay: G' assay; also: key of the grades not given here
T9 chain: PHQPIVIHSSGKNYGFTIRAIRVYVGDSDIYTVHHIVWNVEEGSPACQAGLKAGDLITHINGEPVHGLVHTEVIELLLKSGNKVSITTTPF

[16] = biological target: GST-KIAA0147 PDZ domain 1 (Homo sapiens (Human)), Q14160; assay: G' assay; also: key of the grades not given here
Sequence of GST-KIAA0147 PDZ domain 1 (Homo sapiens (Human)), Q14160 (Q14160 other isoform, or with tags, fused parts or gaps): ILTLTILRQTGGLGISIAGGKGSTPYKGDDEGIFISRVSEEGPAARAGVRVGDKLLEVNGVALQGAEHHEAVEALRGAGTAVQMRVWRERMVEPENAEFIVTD

[17] = biological target: T10, GST-DLG1 PDZ domain 3 (Homo sapiens), Q12959; assay: G' assay; also: key of the grades not given here
T10 chain: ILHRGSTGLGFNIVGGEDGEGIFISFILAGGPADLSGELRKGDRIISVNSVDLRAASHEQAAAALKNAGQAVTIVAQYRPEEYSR

[18] = biological target: T11, GST-KIAA1719 PDZ domain 3 (Homo sapiens (Human)), Q9C0E4; assay: G' assay; also: key of the grades not given here
T11 chain: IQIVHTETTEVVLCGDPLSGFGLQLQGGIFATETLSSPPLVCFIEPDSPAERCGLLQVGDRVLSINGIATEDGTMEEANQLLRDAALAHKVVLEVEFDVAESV

[19] = biological target: T12, GST-PSD95 PDZ domain 3 (Homo sapiens); assay: G' assay; also: key of the grades not given here
T12 chain: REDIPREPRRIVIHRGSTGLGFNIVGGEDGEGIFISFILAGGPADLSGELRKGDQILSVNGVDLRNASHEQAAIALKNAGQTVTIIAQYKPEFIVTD

[20] = biological target: T13, GST-BAI-1 Associated Protein PDZ domain 2 (Mus musculus (Mouse)), Q6RHR9; assay: G' assay; also: key of the grades not given here
T13 sequence (Q6RHR9 455-558): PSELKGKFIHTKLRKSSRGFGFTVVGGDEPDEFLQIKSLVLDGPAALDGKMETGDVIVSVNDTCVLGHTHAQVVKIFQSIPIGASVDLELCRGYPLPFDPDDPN

[21] = biological target: GST-DLG1 PDZ domains 1, 2 (Homo sapiens), Q12959; assay: G' assay; also: key of the grades not given here
[22] = biological target: T6, GST-NeDLG PDZ domains 1, 2, Q92796; assay: G assay titration, PDZ 1 ug/ml
[23] = biological target: T12, GST-PSD95 PDZ domain 3 (Homo sapiens); assay: G assay titration, PDZ 1 ug/ml
[24] = biological target: T13, GST-BAI-1 Associated Protein PDZ domain …; assay: G assay titration, PDZ 1 ug/ml
[25] = biological target: T14, GST-Outer Membrane PDZ domain 1 (Homo sapiens (Human)), P57105; assay: G' assay; also: key of the grades not given here
T14 chain: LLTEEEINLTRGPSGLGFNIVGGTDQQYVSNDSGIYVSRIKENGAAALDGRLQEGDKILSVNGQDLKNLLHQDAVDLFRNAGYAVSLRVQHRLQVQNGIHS

[26] = biological target: GST-DLG1 PDZ domains 1, 2 (Homo sapiens), Q12959; assay: G assay titration, PDZ 5 ug/ml
[27] = biological target: T7, GST-KIAA0807(S) PDZ domain 1 (Homo …); assay: G assay titration, PDZ 0.3 ug/ml
[28] = biological target: T15, GST-PDZK1 PDZ domain 2 (Homo sapiens (Human)), Q5T2W1; assay: G' assay; also: key of the grades not given here
T15 chain: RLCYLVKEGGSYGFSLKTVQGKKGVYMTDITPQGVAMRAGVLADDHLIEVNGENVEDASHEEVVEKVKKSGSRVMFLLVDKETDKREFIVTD

[29] = biological target: T16, GST-EZRIN Binding Protein 50 PDZ domain 1 (Homo sapiens (Human)), O14745; assay: G' assay; also: key of the grades not given here
T16 chain: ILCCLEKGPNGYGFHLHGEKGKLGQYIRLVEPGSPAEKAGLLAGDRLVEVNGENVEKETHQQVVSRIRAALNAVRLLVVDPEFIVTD

[30] = biological target: GST-KIAA807 [GST: P08515]; assay: G' assay; also: key of the grades not given here
Sequence of GST-KIAA807 [GST: P08515] (P08515 whole entry, the tested form may be a part): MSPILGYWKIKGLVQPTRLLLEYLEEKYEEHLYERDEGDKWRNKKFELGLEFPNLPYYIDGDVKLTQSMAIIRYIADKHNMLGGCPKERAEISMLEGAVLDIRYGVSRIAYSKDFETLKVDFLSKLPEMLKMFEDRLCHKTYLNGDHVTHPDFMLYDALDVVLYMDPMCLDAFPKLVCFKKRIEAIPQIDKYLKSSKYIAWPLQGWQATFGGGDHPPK

[31] = biological target: T17, GST-PDZK1 PDZ domains 2, 3, 4, Q5T2W1; assay: G' assay; also: key of the grades not given here
T17 chain: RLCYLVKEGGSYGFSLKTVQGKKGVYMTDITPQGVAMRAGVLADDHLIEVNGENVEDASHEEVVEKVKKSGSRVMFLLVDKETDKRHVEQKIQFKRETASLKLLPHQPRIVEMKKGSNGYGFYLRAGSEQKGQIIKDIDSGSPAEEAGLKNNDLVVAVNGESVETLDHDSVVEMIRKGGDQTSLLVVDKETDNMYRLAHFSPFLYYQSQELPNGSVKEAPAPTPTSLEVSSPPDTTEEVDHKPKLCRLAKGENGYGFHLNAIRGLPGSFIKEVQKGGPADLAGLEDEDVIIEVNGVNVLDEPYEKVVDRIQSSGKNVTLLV

[32] = biological target: T18, GST-EZRIN Binding Protein 50 PDZ domain 2 (Homo sapiens (Human)), O14745; assay: G' assay; also: key of the grades not given here
T18 chain: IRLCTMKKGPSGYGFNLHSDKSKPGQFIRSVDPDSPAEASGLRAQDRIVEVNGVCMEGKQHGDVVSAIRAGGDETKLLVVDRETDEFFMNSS

[33] = biological target: T19, GST-Shank 3 PDZ domain 1 (human (hypothetical, computer cloned)), Q9BYB0; assay: G' assay; also: key of the grades not given here
T19 chain: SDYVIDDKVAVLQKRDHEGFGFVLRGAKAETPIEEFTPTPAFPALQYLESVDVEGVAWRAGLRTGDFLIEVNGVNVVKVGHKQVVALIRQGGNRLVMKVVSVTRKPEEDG

[34] = biological target: T20, GST-KIAA0561 PDZ domain 1 (Homo sapiens (Human)), O60307; assay: G' assay; also: key of the grades not given here
T20 chain: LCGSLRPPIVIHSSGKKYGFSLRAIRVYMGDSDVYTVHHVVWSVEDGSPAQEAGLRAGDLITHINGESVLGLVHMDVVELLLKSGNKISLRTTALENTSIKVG

[35] = biological target: T21, GST-Shank 1 PDZ domain 1 (Homo sapiens (Human)), Q9UPX8; assay: G' assay; also: key of the grades not given here
T21 chain: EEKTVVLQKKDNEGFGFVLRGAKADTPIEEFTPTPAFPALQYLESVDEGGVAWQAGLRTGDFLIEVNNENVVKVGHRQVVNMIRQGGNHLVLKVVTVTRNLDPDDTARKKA

[36] = biological target: T15, GST-PDZK1 PDZ domain 2 (Homo sapiens …); assay: G assay titration, PDZ 5 ug/ml

A Classification [1] of 2 A450 class, a Classification [2] of 2 A450 class and a Classification [3] of 1 A450 class were found for SFTSILTCHQRRTQRKETVA (modifications not checked) [GluR5-2 (rat)] in this work. For the same binder, the Classification [4] was 1 A450 class, the Classification [5] was 2 A450 class and the Classification [6] was 1 A450 class. For the same binder, the Classification [7] was 1 A450 class, the Classification [8] was 2 A450 class and the Classification [9] was 5 A450 class. The Classification [10] was 5 A450 class, the Classification [11] was 1 A450 class and the Classification [12] was 3 A450 class. The Classification [13] was 1 A450 class, the Classification [14] was 5 A450 class and the Classification [15] was 1 A450 class. It also gave a Classification [16] of 2 A450 class, a Classification [17] of 1 A450 class and a Classification [18] of 1 A450 class. For the same binder, the Classification [19] was 5 A450 class, the Classification [20] was 5 A450 class and the Classification [21] was 5 A450 class. It also gave a Kd [22] of 100 nM, a Kd [23] of 100 nM and a Kd [24] of 300 nM.

A Classification [25] of 4 A450 class, a Classification [6] of 1 A450 class and a Classification [7] of 1 A450 class were found for LHNQASVPLEPRPLRRESEI (modifications not checked) [Kir2.1 (inwardly rect. K+ channel)] in this work. It also gave a Classification [8] of 1 A450 class, a Classification [9] of 2 A450 class and a Classification [10] of 1 A450 class. The Classification [14] was 1 A450 class, the Classification [21] was 2 A450 class and the Kd [26] was 5 µM.

A Kd [27] of 1000 nM, a Classification [28] of 1 A450 class and a Classification [29] of 3 A450 class were found for PSWRRSSLSESENATSLTTF (modifications not checked) [BLR-1] in this work. The Classification [30] was 2 A450 class, the Classification [11] was 2 A450 class and the Classification [31] was 1 A450 class. For the same binder, the Classification [32] was 3 A450 class, the Classification [33] was 3 A450 class and the Classification [34] was 1 A450 class. For the same binder, the Classification [35] was 3 A450 class and the Kd [36] was 2000 nM.
